# Experimental data taken from patent publication US20080023859A1, “Glycopeptides and Temperature-Responsive Micelles” (Toagosei Co., Ltd., priority 2003, published 2008).
# Assay: Measurement of micelle formation by dynamic light scattering (particle diameter)
# Assay type: physicochemical
# Details: DLS in solution at various temperatures
# Protocol: The micelle formation was observed by measuring the particle diameter of glycopeptides using dynamic light scattering (DLS; HK-6600 manufactured by Otsuka Electronics Co., Ltd.).
# For the solution of Compound 1, the temperature was varied between a temperature range of 15° C. to 35° C. for 15 minutes, the temperature variation was repeated, and the particle diameters were measured at 15° C. and 35° C..
substance,measurement,value
NH2-Val-Pro-Gly-Val-Gly-Val-Pro-Gly-Val-Gly-OH (H-VPGVGVPGVG-OH) [reference peptide molecule],particle diameter of aggregate (in words),very large particle diameter
